Assay results published in patent publication US20210054088A1.

How the values were obtained:
Human C1q (human) = Human C1q (human) (UniProt P02745); assay: ELISA, antibody coated, human C1q added
FcγRI = FcγRI (UniProt P12314); assay: MSD assay, Fcγ receptor coated
FcγRIIIa(V) = FcγRIIIa(V) (UniProt P08637); assay: MSD assay, Fcγ receptor coated
FcγRIIa(H) = FcγRIIa(H) (UniProt P12318); assay: MSD assay, Fcγ receptor coated
FcγRIIb = FcγRIIb (UniProt P31994); assay: MSD assay, Fcγ receptor coated
FcγRIIIa(F) = FcγRIIIa(F) (UniProt P08637); assay: MSD assay, Fcγ receptor coated
Chain of FcγRIIIa(F) (P08637 17-208 limits assumed): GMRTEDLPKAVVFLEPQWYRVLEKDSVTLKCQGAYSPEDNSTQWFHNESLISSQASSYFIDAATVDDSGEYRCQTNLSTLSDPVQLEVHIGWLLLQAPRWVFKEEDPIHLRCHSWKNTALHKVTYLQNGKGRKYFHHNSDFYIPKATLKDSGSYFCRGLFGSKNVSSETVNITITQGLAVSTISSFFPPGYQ

Chain of FcγRIIb (P31994 43-217 limits assumed): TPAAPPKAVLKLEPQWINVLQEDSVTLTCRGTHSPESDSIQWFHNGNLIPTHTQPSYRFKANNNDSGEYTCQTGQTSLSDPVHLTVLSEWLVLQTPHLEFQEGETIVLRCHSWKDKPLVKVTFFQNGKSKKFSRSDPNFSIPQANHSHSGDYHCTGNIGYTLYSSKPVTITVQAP
Chain of FcγRIIa(H) (P12318 36-218 limits assumed): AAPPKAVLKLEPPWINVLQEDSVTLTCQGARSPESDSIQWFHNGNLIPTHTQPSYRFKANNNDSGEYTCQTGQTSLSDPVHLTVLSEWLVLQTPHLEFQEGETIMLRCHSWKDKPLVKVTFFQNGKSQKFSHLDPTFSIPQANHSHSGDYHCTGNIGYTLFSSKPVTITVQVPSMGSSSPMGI
Chain of FcγRI (P12314 16-288 limits assumed): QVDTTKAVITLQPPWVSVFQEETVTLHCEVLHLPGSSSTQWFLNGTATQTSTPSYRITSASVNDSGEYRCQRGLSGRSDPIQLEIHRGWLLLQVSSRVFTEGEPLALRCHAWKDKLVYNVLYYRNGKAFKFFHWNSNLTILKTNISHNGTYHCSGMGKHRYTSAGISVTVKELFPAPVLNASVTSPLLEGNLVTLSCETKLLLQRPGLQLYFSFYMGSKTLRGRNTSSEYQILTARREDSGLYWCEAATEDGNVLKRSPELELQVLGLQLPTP
Chain of Human C1q (human) (P02745 23-245 limits assumed, chain 1 of 3): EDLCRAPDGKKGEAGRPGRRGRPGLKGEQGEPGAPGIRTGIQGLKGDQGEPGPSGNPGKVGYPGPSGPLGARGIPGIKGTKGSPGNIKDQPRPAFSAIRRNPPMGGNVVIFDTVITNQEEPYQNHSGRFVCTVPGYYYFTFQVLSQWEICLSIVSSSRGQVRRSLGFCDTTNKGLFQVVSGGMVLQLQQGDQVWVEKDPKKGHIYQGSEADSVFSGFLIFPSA
Chain of Human C1q (human) (P02746 28-253 limits assumed, chain 2 of 3, further chain): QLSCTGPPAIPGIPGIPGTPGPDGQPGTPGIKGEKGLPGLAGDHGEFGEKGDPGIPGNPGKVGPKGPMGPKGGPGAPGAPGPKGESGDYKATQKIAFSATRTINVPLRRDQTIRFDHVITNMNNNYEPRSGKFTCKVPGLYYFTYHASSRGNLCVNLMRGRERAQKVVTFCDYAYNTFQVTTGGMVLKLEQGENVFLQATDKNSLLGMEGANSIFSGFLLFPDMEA
Chain of Human C1q (human) (P02747 29-245 limits assumed, chain 3 of 3, further chain): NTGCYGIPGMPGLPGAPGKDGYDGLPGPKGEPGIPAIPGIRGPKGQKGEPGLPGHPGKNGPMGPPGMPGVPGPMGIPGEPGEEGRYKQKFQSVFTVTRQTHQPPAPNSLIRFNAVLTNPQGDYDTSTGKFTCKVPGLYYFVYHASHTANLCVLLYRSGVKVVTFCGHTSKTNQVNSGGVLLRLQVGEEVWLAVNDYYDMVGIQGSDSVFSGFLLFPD
Chain of FcγRIIIa(V) (P08637 17-208 F176V limits assumed): as the sequence (P08637 17-208 limits assumed) above, with F160V counted along it

Substance: Positive Control IgG1 (Intact Fc receptor effector functionality) (antibody)
- EC50 (Human C1q (human)): 8.9 nM
- EC50 (FcγRI): 0.8 nM
- EC50 (FcγRIIIa(V)): 6.2 nM
- EC50 (FcγRIIa(H)): 93.7 nM
- EC50 (FcγRIIb): > 134 nM
- EC50 (FcγRIIIa(F)): 19 nM
